Measurements as given in patent publication US20160145684A1.

Key:
[1] = target: Human statherin protein (human) (UniProt P02808); assay: indirect ELISA; coat: sample 7, 0.78125 uL saliva/100 uL in urine, diluted 1:40; replicate R1
[2] = target: Human statherin protein (human) (UniProt P02808); assay: indirect ELISA; coat: sample 7, 0.78125 uL saliva/100 uL in urine, diluted 1:40; mean minus saliva-free urine blank
[3] = target: Human statherin protein (human) (UniProt P02808); assay: indirect ELISA; coat: sample 1, 50 uL saliva/100 uL in urine, diluted 1:40; replicate R2
[4] = target: Human statherin protein (human) (UniProt P02808); assay: indirect ELISA; coat: sample 4, 6.25 uL saliva/100 uL in urine, diluted 1:40; replicate R2
[5] = target: Human statherin protein (human) (UniProt P02808); assay: indirect ELISA; coat: A-SP-U (about 500 uL spit in 30 mL urine, individual A) diluted 1:40; replicate R2
[6] = target: Human statherin protein (human) (UniProt P02808); assay: indirect ELISA; coat: sample 7, 0.78125 uL saliva/100 uL in urine, diluted 1:40; replicate R3
[7] = target: Human statherin protein (human) (UniProt P02808); assay: indirect ELISA; coat: B-Saliva (pure saliva of individual B) diluted 1:40; replicate R1
[8] = target: Human statherin protein (human) (UniProt P02808); assay: indirect ELISA; coat: A-Saliva (pure saliva of individual A) diluted 1:40; replicate R3
[9] = target: Human statherin protein (human) (UniProt P02808); assay: indirect ELISA; coat: sample 7, 0.78125 uL saliva/100 uL in urine, diluted 1:40; mean of triplicate
[10] = target: Human statherin protein (human) (UniProt P02808); assay: indirect ELISA; coat: A-SB-U (buccal swab stirred in 30 mL urine, individual A) diluted 1:40; replicate R2
[11] = target: Human statherin protein (human) (UniProt P02808); assay: indirect ELISA; coat: A-SB-U (buccal swab stirred in 30 mL urine, individual A) diluted 1:40; mean of triplicate
[12] = target: Human statherin protein (human) (UniProt P02808); assay: indirect ELISA; coat: B-SP-U (about 500 uL spit in 30 mL urine, individual B) diluted 1:40; mean of triplicate
[13] = target: Human statherin protein (human) (UniProt P02808); assay: indirect ELISA; coat: sample 6, 1.5625 uL saliva/100 uL in urine, diluted 1:40; replicate R3
[14] = target: Human statherin protein (human) (UniProt P02808); assay: indirect ELISA; coat: sample 5, 3.125 uL saliva/100 uL in urine, diluted 1:40; mean minus saliva-free urine blank
[15] = target: Human statherin protein (human) (UniProt P02808); assay: indirect ELISA; coat: sample 4, 6.25 uL saliva/100 uL in urine, diluted 1:40; replicate R3
[16] = target: Human statherin protein (human) (UniProt P02808); assay: indirect ELISA; coat: B-SB-U (buccal swab stirred in 30 mL urine, individual B) diluted 1:40; replicate R1
[17] = target: Human statherin protein (human) (UniProt P02808); assay: indirect ELISA; coat: A-SP-U (about 500 uL spit in 30 mL urine, individual A) diluted 1:40; replicate R3
[18] = target: Human statherin protein (human) (UniProt P02808); assay: indirect ELISA; coat: B-SB-U (buccal swab stirred in 30 mL urine, individual B) diluted 1:40; replicate R2
[19] = target: Human statherin protein (human) (UniProt P02808); assay: indirect ELISA; coat: sample 3, 12.5 uL saliva/100 uL in urine, diluted 1:40; replicate R1
[20] = target: Human statherin protein (human) (UniProt P02808); assay: indirect ELISA; coat: sample 3, 12.5 uL saliva/100 uL in urine, diluted 1:40; replicate R2
[21] = target: Human statherin protein (human) (UniProt P02808); assay: indirect ELISA; coat: B-SB-U (buccal swab stirred in 30 mL urine, individual B) diluted 1:40; mean of triplicate
[22] = target: Human statherin protein (human) (UniProt P02808); assay: indirect ELISA; coat: B-Saliva (pure saliva of individual B) diluted 1:40; replicate R2
[23] = target: Human statherin protein (human) (UniProt P02808); assay: indirect ELISA; coat: sample 7, 0.78125 uL saliva/100 uL in urine, diluted 1:40; replicate R2
[24] = target: Human statherin protein (human) (UniProt P02808); assay: indirect ELISA; coat: sample 4, 6.25 uL saliva/100 uL in urine, diluted 1:40; replicate R1
[25] = target: Human statherin protein (human) (UniProt P02808); assay: indirect ELISA; coat: A-SB-U (buccal swab stirred in 30 mL urine, individual A) diluted 1:40; replicate R1
[26] = target: Human statherin protein (human) (UniProt P02808); assay: indirect ELISA; coat: sample 1, 50 uL saliva/100 uL in urine, diluted 1:40; mean minus saliva-free urine blank
[27] = target: Human statherin protein (human) (UniProt P02808); assay: indirect ELISA; coat: sample 4, 6.25 uL saliva/100 uL in urine, diluted 1:40; mean minus saliva-free urine blank
[28] = target: Human statherin protein (human) (UniProt P02808); assay: indirect ELISA; coat: B-SB-U (buccal swab stirred in 30 mL urine, individual B) diluted 1:40; replicate R3
[29] = target: Human statherin protein (human) (UniProt P02808); assay: indirect ELISA; coat: A-SP-U (about 500 uL spit in 30 mL urine, individual A) diluted 1:40; replicate R1
[30] = target: Human statherin protein (human) (UniProt P02808); assay: indirect ELISA; coat: A-SP-U (about 500 uL spit in 30 mL urine, individual A) diluted 1:40; mean of triplicate

Chain of UniProt P02808 (P02808 20-62 limits assumed): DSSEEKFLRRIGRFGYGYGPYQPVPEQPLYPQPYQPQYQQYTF

Substance: Statherin Antibody (N-16), Santa Cruz Biotechnology, Inc. (Catalog No. sc-28112)
- OD405 [1]: 0.069 OD405
- OD405 Mean - Blank mean [2]: 0.032 OD405
- OD405 [3]: 0.151 OD405
- OD405 [4]: 0.14 OD405
- OD405 [5]: 0.229 OD405
- OD405 [6]: 0.057 OD405
- OD405 [7]: 0.325 OD405
- OD405 [8]: 1.24 OD405
- OD405 Mean [9]: 0.062 OD405
- OD405 [10]: 0.287 OD405
- OD405 Mean [11]: 0.303 OD405
- OD405 Mean [12]: 0.168 OD405
- OD405 [13]: 0.075 OD405
- OD405 Mean - Blank mean [14]: 0.091 OD405
- OD405 [15]: 0.131 OD405
- OD405 [16]: 0.318 OD405
- OD405 [17]: 0.236 OD405
- OD405 [18]: 0.311 OD405
- OD405 [19]: 0.161 OD405
- OD405 [20]: 0.129 OD405
- OD405 Mean [21]: 0.306 OD405
- OD405 [22]: 0.289 OD405
- OD405 [23]: 0.06 OD405
- OD405 [24]: 0.16 OD405
- OD405 [25]: 0.331 OD405
- OD405 Mean - Blank mean [26]: 0.125 OD405
- OD405 Mean - Blank mean [27]: 0.114 OD405
- OD405 [28]: 0.289 OD405
- OD405 [29]: 0.207 OD405
- OD405 Mean [30]: 0.224 OD405
